The values that follow come from patent publication US20240117334A1, “FACTOR B PROTEASES” (Vertex Pharmaceuticals Incorporated, priority 2021, published 2024).

Where a chain is given by its changes, count along the chain named. Numbers in names are those of the source.

First the molecules themselves.
B1: chymase C22S/P38Q/K40A/F41R/L99Y/V138I/F173L/D175R/A190S/V213A/S218L/A226R (enzyme)
chain: IIGGTESKPHSRPYMAYLEIVTSNGQSARCGGFLIRRNFVLTAAHCAGRSITVTLGAHNITEEEDTWQKLEVIKQFRHPKYNTSTYHHDIMLLKLKEKASLTLAVGTLPFPSQFNFVPPGRMCRIAGWGRTGVLKPGSDTLQEVKLRLMDPQACSHLRRFDHNLQLCVGNPRKTKSSFKGDSGGPLLCAGVAQGIASYGRLDAKPPRVFTRISHYRPWINQILQAN
B2: chymase C22S/K40M/F41K/L99N/F173Y/D175R/S218T/A226R (enzyme)
chain: B1 chain with Q26P, A28M, R29K, Y86N, I125V, L157Y, S177A, A196V, L201T
B3: chymase C22S/P38Q/V138I/A190S/V213A/A226R (enzyme)
chain: B1 chain with A28K, R29F, Y86L, L157F, R159D, L201S
B4: chymase C22S/P38Q/K40L/F41R/V138I/F173Y/D175N/A190S/V213A/S218V/A226R (enzyme)
chain: B1 chain with A28L, Y86L, L157Y, R159N, L201V
B5: chymase C22S/P38Q/K40L/F41R/V138I/F173L/D175H/A190S/V213A/S218V/A226R (enzyme)
chain: B1 chain with A28L, Y86L, R159H, L201V
B6: chymase C22S/P38Q/K40M/F41H/V138I/F173Y/D175R/A190S/V213A/S218V/A226R (enzyme)
chain: B1 chain with A28M, R29H, Y86L, L157Y, L201V
B7: chymase C22S/P38Q/K40A/F41R/V138I/D175R/A190S/V213A/S218T/A226R (enzyme)
chain: B1 chain with Y86L, L157F, L201T
B8: chymase C22S/P38Q/K40M/F41T/V138I/D175R/A190S/V213A/S218I/A226R (enzyme)
chain: B1 chain with A28M, R29T, Y86L, L157F, L201I
B9: chymase C22S/P38Q/K40L/F41R/V138I/F173M/D175N/A190S/V213A/S218L/A226R (enzyme)
chain: B1 chain with A28L, Y86L, L157M, R159N
B10: chymase C22S/P38Q/K40M/F41R/L99N/V138I/F173Y/D175T/A190S/V213A/S218V/A226R (enzyme)
chain: B1 chain with A28M, Y86N, L157Y, R159T, L201V
B11: chymase C22S/K40M/F41K/F173Y/D175R/S218E/A226R (enzyme)
chain: B1 chain with Q26P, A28M, R29K, Y86L, I125V, L157Y, S177A, A196V, L201E
B12: chymase C22S/P38Q/K40M/F41R/L99F/V138I/F173L/D175N/A190S/V213A/A226R (enzyme)
chain: B1 chain with A28M, Y86F, R159N, L201S
B13: chymase C22S/P38Q/K40M/F41R/V138I/F173L/D175K/A190S/V213A/S218V/A226R (enzyme)
chain: B1 chain with A28M, Y86L, R159K, L201V
B14: chymase C22S/P38Q/K40L/F41R/L99N/V138I/F173Y/D175T/A190S/V213A/S218V/A226R (enzyme)
chain: B1 chain with A28L, Y86N, L157Y, R159T, L201V
B15: chymase C22S/P38Q/K40A/F41R/V138I/F173L/D175R/A190S/V213A/S218L/A226R (enzyme)
chain: B1 chain with Y86L
B16: chymase C22S/P38Q/K40M/F41R/L99Y/V138I/F173Y/D175S/A190S/V213A/S218V/A226R (enzyme)
chain: B1 chain with A28M, L157Y, R159S, L201V
B17: chymase C22S/K40L/F41K/L99Q/F173Y/D175N/S218V/A226R (enzyme)
chain: B1 chain with Q26P, A28L, R29K, Y86Q, I125V, L157Y, R159N, S177A, A196V, L201V
B18: chymase C22S/P38Q/K40L/F41R/L99H/V138I/F173Y/D175S/A190S/V213A/S218I/A226R (enzyme)
chain: B1 chain with A28L, Y86H, L157Y, R159S, L201I
B19: chymase C22S/P38Q/K40L/F41R/V138I/D175N/A190S/V213A/S218V/A226R (enzyme)
chain: B1 chain with A28L, Y86L, L157F, R159N, L201V
B20: chymase C22S/P38Q/K40A/F41R/L99H/F173Y/D175Y/V213Q/S218V/A226R/F228A (enzyme)
chain: B1 chain with Y86H, I125V, L157Y, R159Y, S177A, A196Q, L201V, F209A
B21: chymase C22S/P38Q/K40M/F41H/V138I/D175S/A190S/V213A/A226R (enzyme)
chain: B1 chain with A28M, R29H, Y86L, L157F, R159S, L201S
B22: chymase C22S/K40L/F41K/L99H/F173Y/D175S/S218I/A226R (enzyme)
chain: B1 chain with Q26P, A28L, R29K, Y86H, I125V, L157Y, R159S, S177A, A196V, L201I
B23: chymase C22S/P38Q/K40M/F41R/V138I/F173L/D175N/A190S/V213A/S218L/A226R (enzyme)
chain: B1 chain with A28M, Y86L, R159N
B24: chymase C22S/P38Q/K40V/F41R/V138I/F173L/D175N/A190S/V213A/S218V/A226R (enzyme)
chain: B1 chain with A28V, Y86L, R159N, L201V
B25: chymase C22S/P38Q/K40A/F41K/L99H/V138I/D175S/A190S/V213A/S218V/A226R (enzyme)
chain: B1 chain with R29K, Y86H, L157F, R159S, L201V
B26: chymase C22S/P38Q/K40M/F41R/L99Q/V138I/F173Y/D175N/A190S/V213A/S218V/A226R (enzyme)
chain: B1 chain with A28M, Y86Q, L157Y, R159N, L201V
B27: chymase C22S/P38Q/K40L/F41K/L99N/V138I/F173Y/D175S/A190S/V213A/S218I/A226R (enzyme)
chain: B1 chain with A28L, R29K, Y86N, L157Y, R159S, L201I

In this assay the target is Human Factor B (human) (UniProt P00751). Put plainly: cell-based or functional assay.
Sequence of Human Factor B (human) (P00751 26-764 limits assumed): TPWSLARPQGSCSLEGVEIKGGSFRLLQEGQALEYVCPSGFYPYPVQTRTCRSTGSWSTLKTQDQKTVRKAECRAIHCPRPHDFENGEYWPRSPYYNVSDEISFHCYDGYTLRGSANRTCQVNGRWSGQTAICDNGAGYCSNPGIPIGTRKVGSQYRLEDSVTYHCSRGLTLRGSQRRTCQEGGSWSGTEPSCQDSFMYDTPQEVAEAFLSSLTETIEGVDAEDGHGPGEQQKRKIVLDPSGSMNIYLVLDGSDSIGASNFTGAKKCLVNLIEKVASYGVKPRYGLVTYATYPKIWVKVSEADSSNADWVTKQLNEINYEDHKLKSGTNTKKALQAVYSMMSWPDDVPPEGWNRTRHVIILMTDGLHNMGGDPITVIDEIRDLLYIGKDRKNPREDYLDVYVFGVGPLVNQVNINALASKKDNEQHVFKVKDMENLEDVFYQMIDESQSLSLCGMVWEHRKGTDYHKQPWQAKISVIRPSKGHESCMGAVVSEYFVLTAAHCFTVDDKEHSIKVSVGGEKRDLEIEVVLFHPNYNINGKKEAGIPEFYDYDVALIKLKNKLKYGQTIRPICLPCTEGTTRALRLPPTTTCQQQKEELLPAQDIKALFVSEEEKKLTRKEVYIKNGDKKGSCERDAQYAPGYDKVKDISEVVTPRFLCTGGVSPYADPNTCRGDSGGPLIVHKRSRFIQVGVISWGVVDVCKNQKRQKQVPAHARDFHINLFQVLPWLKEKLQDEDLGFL
On to B1, for which the fB Cleavage EC50 was found to be 511 nM. With B2, the fB Cleavage EC50 worked out at 216 nM and the fB Cleavage, 80% plasma EC50 is 4130 nM. Consider B3, for which the fB Cleavage EC50 was 1350 nM. The molecule B4 registered an EC50 (Factor B ELISA after digestion) of 42.5 nM and a fB Cleavage EC50 of 36.3 nM. The molecule B5 displayed a fB Cleavage EC50 of 314 nM. Take B6: the fB Cleavage EC50 amounted to 47.6 nM. In the case of B7, the fB Cleavage EC50 is 262 nM. B8 registered a fB Cleavage EC50 of 218 nM. Same read-out and setting: to B9 belongs 456 nM; to B10, 92.1 nM. B11: the fB Cleavage EC50 was 203 nM and the fB Cleavage, 80% plasma EC50 was determined as 4130 nM. Molecule B12 registered a fB Cleavage EC50 of 870 nM. Still for that read-out and setting: to B13 belongs 350 nM; to B14, 57.6 nM; to B15, 283 nM. B16 returned a fB Cleavage EC50 of 103 nM.

On to B17, for which the fB Cleavage EC50 amounted to 110 nM and the fB Cleavage, 80% plasma EC50 stood at 5670 nM. The molecule B18 returned a fB Cleavage EC50 of 60.3 nM. Same read-out and setting: to B19 belongs 114 nM; to B20, 769 nM. B21 returned a fB Cleavage EC50 of 1060 nM. The molecule B22 showed a fB Cleavage EC50 of 101 nM and a fB Cleavage, 80% plasma EC50 of 4620 nM. B23: the fB Cleavage EC50 was determined as 482 nM. Molecule B24 displayed a fB Cleavage EC50 of 279 nM. Consider B25, for which the fB Cleavage EC50 was 142 nM. The same measure, in the same setting: to B26 belongs 157 nM. In turn, B27 came in with a fB Cleavage EC50 of 144 nM.
